Measured values reported in patent US20230272041A1 (DRAGONFLY THERAPEUTICS, published 2023).

Legend:
cynomolgus monkey FcRn = cynomolgus monkey FcRn (cynomolgus monkey, UniProt Q8SPV9 24-297; Q8SPW0 21-119); experiment: FcRn binding at pH 6.0, reference IgG1 isotype control trastuzumab (method not stated in the paragraph)
human FcRn = human FcRn (human, UniProt P55899 24-297; P61769 21-119); experiment: as above
recombinant human CD32b = target: T1, recombinant human CD32b (human, UniProt P31994 46-217, limits assumed, site-specific biotinylation (site not stated)); experiment: SPR (Biacore 8K), receptor captured on the chip via site-specific biotinylation; qualitative assessment
T1 construct: also called FcγRIIB
T1 sequence (looked up): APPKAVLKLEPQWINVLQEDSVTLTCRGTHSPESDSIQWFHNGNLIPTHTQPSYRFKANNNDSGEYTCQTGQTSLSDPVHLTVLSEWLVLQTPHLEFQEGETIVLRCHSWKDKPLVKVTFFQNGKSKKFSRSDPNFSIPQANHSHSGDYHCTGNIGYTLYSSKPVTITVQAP

[1] = target: T2, recombinant human CD16a F158 allele (human, UniProt P08637 17-208, site-specific biotinylation (site not stated)); experiment: as above
T2 construct: also called FcγRIIIA F158
T2 sequence (P08637 17-208 limits assumed): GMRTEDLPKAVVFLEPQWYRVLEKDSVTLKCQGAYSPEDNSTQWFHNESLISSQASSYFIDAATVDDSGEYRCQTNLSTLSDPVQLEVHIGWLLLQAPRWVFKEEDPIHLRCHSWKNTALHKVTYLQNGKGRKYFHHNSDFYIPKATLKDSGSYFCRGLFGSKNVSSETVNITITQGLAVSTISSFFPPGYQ

[2] = target: T3, recombinant human CD32a R131 allele (human, UniProt P12318 36-218, limits assumed, site-specific biotinylation (site not stated)); experiment: as above
T3 construct: also called FcγRIIA R131
T3 sequence (looked up): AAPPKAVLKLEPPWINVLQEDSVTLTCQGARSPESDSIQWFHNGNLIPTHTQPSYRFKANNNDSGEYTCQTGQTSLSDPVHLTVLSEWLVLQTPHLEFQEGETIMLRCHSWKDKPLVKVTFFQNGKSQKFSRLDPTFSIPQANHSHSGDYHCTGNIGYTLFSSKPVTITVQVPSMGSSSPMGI

[3] = target: recombinant cynomolgus CD16 (cynomolgus, UniProt Q8SPW2 17-208, site-specific biotinylation (site not stated)); experiment: as above
Chain of recombinant cynomolgus CD16 (Q8SPW2 17-208 limits assumed): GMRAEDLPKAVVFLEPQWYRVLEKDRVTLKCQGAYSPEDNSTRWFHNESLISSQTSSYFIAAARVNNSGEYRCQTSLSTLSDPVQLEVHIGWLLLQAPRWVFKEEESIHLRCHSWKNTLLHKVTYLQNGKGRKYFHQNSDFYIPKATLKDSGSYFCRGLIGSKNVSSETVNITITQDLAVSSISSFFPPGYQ

recombinant human CD64 = target: T4, recombinant human CD64 (human, UniProt P12314 16-288, limits assumed, site-specific biotinylation (site not stated)); experiment: as above
T4 construct: also called FcγRI
T4 sequence (P12314 16-288 limits assumed): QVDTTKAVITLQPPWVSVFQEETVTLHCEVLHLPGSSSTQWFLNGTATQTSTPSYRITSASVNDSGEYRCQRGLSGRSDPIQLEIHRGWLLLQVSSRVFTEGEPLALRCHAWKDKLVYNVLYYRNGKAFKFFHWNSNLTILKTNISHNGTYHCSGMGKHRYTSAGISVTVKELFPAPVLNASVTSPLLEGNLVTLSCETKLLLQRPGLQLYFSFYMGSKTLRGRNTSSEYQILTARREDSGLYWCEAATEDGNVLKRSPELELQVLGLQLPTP

recombinant human CD16b = target: T5, recombinant human CD16b (human, UniProt O75015 17-200, site-specific biotinylation (site not stated)); experiment: as above
T5 construct: also called FcγRIIIB
T5 sequence (O75015 17-200 limits assumed): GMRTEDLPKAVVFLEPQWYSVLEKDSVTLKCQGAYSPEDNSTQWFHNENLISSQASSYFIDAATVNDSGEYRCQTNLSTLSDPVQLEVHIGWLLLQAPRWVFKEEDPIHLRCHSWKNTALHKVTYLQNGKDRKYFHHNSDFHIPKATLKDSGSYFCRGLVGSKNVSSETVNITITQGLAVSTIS

[4] = target: T6, recombinant human CD16a V158 allele (human, UniProt P08637 17-208, site-specific biotinylation (site not stated)); experiment: as above
T6 construct: also called FcγRIIIA V158
T6 sequence (P08637 17-208 F176V limits assumed): as the sequence (P08637 17-208 limits assumed) above, with F160V counted along it

[5] = target: T7, recombinant human CD32a H131 allele (human, UniProt P12318 36-218, limits assumed, site-specific biotinylation (site not stated)); experiment: as above
T7 construct: also called FcγRIIA H131
T7 sequence (looked up): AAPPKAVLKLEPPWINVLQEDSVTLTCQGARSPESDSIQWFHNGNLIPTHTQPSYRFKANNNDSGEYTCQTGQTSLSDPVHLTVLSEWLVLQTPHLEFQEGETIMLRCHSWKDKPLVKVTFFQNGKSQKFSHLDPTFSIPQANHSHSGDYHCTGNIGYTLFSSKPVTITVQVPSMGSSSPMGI

Chain of human FcRn (P55899 24-297 limits assumed, form in doubt, chain 1 of 2): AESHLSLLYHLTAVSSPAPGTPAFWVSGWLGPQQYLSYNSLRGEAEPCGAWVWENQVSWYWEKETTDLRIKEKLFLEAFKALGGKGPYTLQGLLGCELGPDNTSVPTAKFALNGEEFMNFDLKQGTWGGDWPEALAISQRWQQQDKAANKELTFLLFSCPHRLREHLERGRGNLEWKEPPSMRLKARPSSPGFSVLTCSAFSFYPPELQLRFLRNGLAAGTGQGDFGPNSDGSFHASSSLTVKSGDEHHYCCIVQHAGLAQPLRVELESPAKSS
Chain of human FcRn (P61769 21-119 limits assumed, form in doubt, chain 2 of 2): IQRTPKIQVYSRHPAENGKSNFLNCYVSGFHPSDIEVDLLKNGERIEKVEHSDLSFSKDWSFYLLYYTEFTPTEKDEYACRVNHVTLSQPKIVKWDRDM
Chain of cynomolgus monkey FcRn (Q8SPV9 24-297 limits assumed, chain 1 of 2): as the sequence (P55899 24-297 limits assumed, form in doubt, chain 1 of 2) above, with N39D, E44Q, G99S, S189G, S190N, L217M, S269T counted along it
Chain of cynomolgus monkey FcRn (Q8SPW0 21-119 limits assumed, chain 2 of 2): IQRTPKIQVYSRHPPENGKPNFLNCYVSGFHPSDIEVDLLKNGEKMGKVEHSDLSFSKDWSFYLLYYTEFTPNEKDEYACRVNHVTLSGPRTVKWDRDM

B1: DF-hIL-12-Fc si (Fc fusion)
chain 1: IWELKKDVYVVELDWYPDAPGEMVVLTCDTPEEDGITWTLDQSSEVLGSGKTLTIQVKEFGDAGQYTCHKGGEVLSHSLLLLHKKEDGIWSTDILKDQKEPKNKTFLRCEAKNYSGRFTCWWLTTISTDLTFSVKSSRGSSDPQGVTCGAATLSAERVRGDNKEYEYSVECQEDSACPAAEESLPIEVMVDAVHKLKYENYTSSFFIRDIIKPDPPKNLQLKPLKNSRQVEVSWEYPDTWSTPHSYFSLTFCVQVQGKSKREKKDRVFTDKTSATVICRKNASISVRAQDRYYSSSWSEWASVPCSPKSSDKTHTCPPCPAPEAAGGPSVFLFPPKPKDTLMISRTPEVTCVVVDVSHEDPEVKFNWYVDGVEVHNAKTKPREEQYNSTYRVVSVLTVLHQDWLNGKEYKCKVSNKALAAPIEKTISKAKGQPREPQVCTLPPSRDELTENQVSLTCLVKGFYPSDIAVEWESNGQPENNYKTTPPVLDSDGSFFLYSWLTVDKSRWQQGNVFSCSVMHEALHNHYTQKSLSLSPG
chain 2: RNLPVATPDPGMFPCLHHSQNLLRAVSNMLQKARQTLEFYPCTSEEIDHEDITKDKTSTVEACLPLELTKNESCLNSRETSFITNGSCLASRKTSFMMALCLSSIYEDLKMYQVEFKTMNAKLLMDPKRQIFLDQNMLAVIDELMQALNFNSETVPQKSSLEEPDFYKTKIKLCILLHAFRIRAVTIDRVMSYLNASGGGGSGGGGSGGGGSEPKSSDKTHTCPPCPAPEAAGGPSVFLFPPKPKDTLMISRTPEVTCVVVDVSHEDPEVKFNWYVDGVEVHNAKTKPREEQYNSTYRVVSVLTVLHQDWLNGKEYKCKVSNKALAAPIEKTISKAKGQPREPRVYTLPPCRDELTKNQVSLTCLVKGFYPSDIAVEWESNGQPENNYKTTPPVLVSDGSFTLYSKLTVDKSRWQQGNVFSCSVMHEALHNHYTQKSLSLSPG
notes: also called DF IL-12-Fc; hIL-12-Fc-LALAPA
fold difference in binding affinity value against trastuzumab (cynomolgus monkey FcRn): < 1.5 fold | fold difference in binding affinity value against trastuzumab (human FcRn): < 1.5 fold | binding result (recombinant human CD32b): no binding | binding result [1]: no binding | binding result [2]: no binding | binding result [3]: no binding | binding result (recombinant human CD64): no binding | binding result (recombinant human CD16b): no binding | binding result [4]: no binding | binding result [5]: no binding
